Measured values published in patent US20130210709A1 (ANCHOR THERAPEUTICS, published 2013).
Ends that are not written are not given here. * marks the point of attachment. Palmitoyl = CCCCCCCCCCCCCCCC(=O)*

Molecular target: CXCR4 receptor (human, UniProt P61073 1-352)
Assay: cell-based or functional assay

CXCR4 receptor, sequence (P61073 whole entry): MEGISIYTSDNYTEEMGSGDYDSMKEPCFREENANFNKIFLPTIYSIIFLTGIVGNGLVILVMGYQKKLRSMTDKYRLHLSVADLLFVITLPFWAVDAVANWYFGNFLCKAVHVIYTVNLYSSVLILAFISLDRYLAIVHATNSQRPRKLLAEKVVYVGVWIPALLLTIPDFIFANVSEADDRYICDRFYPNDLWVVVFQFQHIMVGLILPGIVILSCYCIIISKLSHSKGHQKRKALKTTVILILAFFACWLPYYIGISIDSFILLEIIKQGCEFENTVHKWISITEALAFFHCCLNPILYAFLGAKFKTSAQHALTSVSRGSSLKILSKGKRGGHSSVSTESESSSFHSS

| AUC (% of vehicle), chemotaxis, SUPB-15, 1.0 uM | Max (% of vehicle), chemotaxis, SUPB-15, 1.0 uM | Peak Ratio, chemotaxis, SUPB-15, 1.0 uM | Binder |
| --- | --- | --- | --- |
| 71.8 % of vehicle | 72.3 % of vehicle | 0.2 | Palmitoyl-VHATNSQRPRKLLA-NH2 (SMILES CCCCCCCCCCCCCCCC(=O)N[C@H](C(=O)N[C@@H](Cc1c[nH]cn1)C(=O)N[C@@H](C)C(=O)N[C@H](C(=O)N[C@@H](CC(N)=O)C(=O)N[C@@H](CO)C(=O)N[C@@H](CCC(N)=O)C(=O)N[C@@H](CCCNC(=N)N)C(=O)N1CCC[C@H]1C(=O)N[C@@H](CCCNC(=N)N)C(=O)N[C@@H](CCCCN)C(=O)N[C@@H](CC(C)C)C(=O)N[C@@H](CC(C)C)C(=O)N[C@@H](C)C(N)=O)[C@@H](C)O)C(C)C) [CXCR4 i2 loop compound 78] |
| – | – | 1 | DRYLAIVHATNSQRPRKLL-NH2 (not fully specified (N-terminus); also: second lipid on tether backbone (C31H62NC(O)- tether)) [CXCR4 i2 loop compound 76] |
